Assay [1] addresses T1, human TSLP-His (human, UniProt Q969D9 29-159).
T1 construct: Whole entry NP_149024.1 is named; Expressed in E. coli or HEK293F; also called hTSLP; hTSLP-His
In words: competitive ELISA, hIL7Rα-hTSLPR-hFc coated, hTSLP-His plus titrated antibody, anti-His-HRP.

Assay [2] concerns the target T1, human TSLP-His. In words: ELISA, human TSLP-His coated, antibody titrated, anti-rat Fc-HRP. (In general: ELISA stands for enzyme-linked immunosorbent assay.)
The target of assay [3] is T1, human TSLP-His. Description: cell-based or functional assay.
Assay [4] has as its target T1, human TSLP-His. Description: competitive ELISA, hIL7Rα-hTSLPR-hFc coated, hTSLP-His plus hybridoma supernatant, anti-His-HRP.
Assay [5] has as its target T1, human TSLP-His. Description: ELISA, human TSLP-His coated at 1 µg/mL, hybridoma supernatant, anti-rat IgG-HRP.
In assay [6] the target is T1, human TSLP-His. Description: ELISA, human TSLP-His coated, antibody titrated, anti-human Fc-HRP.
In assay [7] the target is T1, human TSLP-His. In words: BLI (Fortebio), antibody on ProA sensor, human TSLP 1.5625-100 nM, 1:1 model. In general terms: In BLI a coated tip is dipped into the sample, and binding shifts an interference pattern.
In assay [8] the target is T1, human TSLP-His. Description: cell-based or functional assay. The source holds these as a separate data set.
Assay [9] has as its target T2, monkey TSLP-His (cynomolgus monkey, Macaca fascicularis) (cynomolgus monkey (Macaca fascicularis), UniProt A0A7N9CAT7 29-159).
T2 construct: Whole entry XP_005557555.1 is named; also called cTSLP
T2 sequence: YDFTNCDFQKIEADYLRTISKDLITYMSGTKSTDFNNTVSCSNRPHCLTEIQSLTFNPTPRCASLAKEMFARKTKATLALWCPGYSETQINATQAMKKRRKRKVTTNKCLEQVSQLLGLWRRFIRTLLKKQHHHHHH
Description: ELISA, monkey TSLP-His coated, antibody titrated, anti-human Fc-HRP.

The target of assay [10] is T2, monkey TSLP-His (cynomolgus monkey, …). In words: ELISA, monkey TSLP-His coated at 1 µg/mL, hybridoma supernatant, anti-rat IgG-HRP.
For assay [11] the target is unchanged. In words: ELISA, monkey TSLP-His coated, antibody titrated, anti-rat Fc-HRP.
Assay [12] has as its target T1, human TSLP-His. In words: cell-based or functional assay. This is another data set of the same source.
Assay [13] deals with T2, monkey TSLP-His (cynomolgus monkey, …). Description: BLI (Fortebio), antibody on ProA sensor, monkey TSLP 1.5625-100 nM, 1:1 model.

B1: chimeric antibody 25A5C5 (antibody, V domains shown)
VH: EVQLVESGGGLVQPGGSLRLSCAASRFTFSRYWMNWVRQAPGKGLEWVANIKQDGNEKYYVDSVKGRFTISRDNAKNSLYLQMNSLRAEDTAVYYCARDRVVGAPDTFDIWGQGTMVTVSS
VL: not shown
notes: From hybridoma of H2L2 mice: fully human variable regions with rat constant region (rat Fc)
For the molecule B1, the IC50 with human TSLP-His [1] is 0.89 nM. Also, in the assay with human TSLP-His [2], the response was half-maximal at 0.208 nM (EC50). The “EC50, blocking human TSLP-induced proliferation of Ba/F3-hTSLPR-hIL7Rα cells (CCK8)” value (“EC50 … (CCK8)” for short) in the assay with human TSLP-His [3] is 0.11 nM. In the assay with human TSLP-His [4], the “hTSLP/hIL7Rα-hTSLPR-hFc inhibition rate (%)” value is 95.9%. The “hTSLP binding (OD450)” value in the assay with human TSLP-His [5] was 2.4 OD450.

B2: recombinant fully human antibody 25A5C5-hIgG (antibody, V domains shown)
VH: EVQLVESGGGLVQPGGSLRLSCAASRFTFSRYWMNWVRQAPGKGLEWVANIKQDGNEKYYVDSVKGRFTISRDNAKNSLYLQMNSLRAEDTAVYYCARDRVVGAPDTFDIWGQGTMVTVSS
VL: not shown
B2 yielded an EC50 with human TSLP-His [6] of 1.45 nM. In the assay with human TSLP-His [7], the affinity, expressed as Kd, was 0.558 nM. Besides, in the assay with human TSLP-His [8], the “hTSLP EC50, inhibition of the proliferation of Ba/F3-hTSLPR-hIL7Rα cells” value (“hTSLP EC50, inhibition” below) turned out to be 0.044 nM. Besides, the binding result in assay [9] is on record as “no binding”.

B3: chimeric antibody 27C2B6 (antibody, V domains shown)
VH: QVQLQESGPGLVKPSGTLSLTCAVSGDSISNYNWWSWVRQPPGKGLEWIGEIYHSGRTNYNPSLKSRVTLSVDTSKNQFSLRLSSVTAADTAVYYCARDAPSDYGDYGFFDHWGQGTLVIVSS
VL: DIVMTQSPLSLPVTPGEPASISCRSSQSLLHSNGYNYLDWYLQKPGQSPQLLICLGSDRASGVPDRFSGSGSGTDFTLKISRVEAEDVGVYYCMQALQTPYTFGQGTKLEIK
notes: Fully human variable regions with rat constant region (rat Fc)
For the molecule B3, in the assay with human TSLP-His [1], the IC50 came to 0.77 nM. For the same molecule, in assay [10], the “cTSLP binding (OD450)” value worked out at 1.11 OD450. Also, the EC50 was 0.221 nM in the assay with human TSLP-His [2] and 0.216 nM in assay [11]. Moreover, the “EC50 … (CCK8)” value in the assay with human TSLP-His [3] stood at 1.22 nM. The “hTSLP/hIL7Rα-hTSLPR-hFc inhibition rate (%)” value with human TSLP-His [4] came out at 69.8%. For the same molecule, the “hTSLP binding (OD450)” value with human TSLP-His [5] worked out at 1.4 OD450.

B4: recombinant fully human antibody 27C2B6-hIgG (antibody, V domains shown)
VH: QVQLQESGPGLVKPSGTLSLTCAVSGDSISNYNWWSWVRQPPGKGLEWIGEIYHSGRTNYNPSLKSRVTLSVDTSKNQFSLRLSSVTAADTAVYYCARDAPSDYGDYGFFDHWGQGTLVIVSS
VL: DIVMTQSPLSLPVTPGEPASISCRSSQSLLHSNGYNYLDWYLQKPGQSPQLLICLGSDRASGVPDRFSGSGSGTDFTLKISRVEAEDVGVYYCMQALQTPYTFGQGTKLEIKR
B4: the 50% effective concentration (EC50) amounted to 1.62 nM with human TSLP-His [6] and 0.18 nM in assay [9]. In addition, the “hTSLP EC50, inhibition” value with human TSLP-His [8] worked out at 0.064 nM.

B5: recombinant fully human antibody 90H3H11-hIgG (antibody, V domains shown)
VH: QVQLVESGGGVVQPGRSLRLSCAASGFTISNHDIHWVRQAPGKGLEWVTLIWYDGSNQYYADSVKGRFTISRDNSKNTVYLQMNSLRAEDTAVYYCARDDYADYVYFHHWGQGTLVTVSS
VL: DIQMTQSPSSLSASVGDRVTITCRASQNINSYLNWYRQKPGKAPELLIYAASSLQSGVPSRFSGSGSGTDFTLTISSLQPEDFATYYCQQSYSTPYTFGQGTELEIKR
B5 had an EC50 with human TSLP-His [6] of 1.36 nM. The molecule also gave a Kd with human TSLP-His [7] of 0.604 nM. For the same molecule, in the assay with human TSLP-His [8], the “hTSLP EC50, inhibition” value was found to be 0.05 nM. Further, the “EC50, inhibition of human TSLP-induced PBMC secretion of TARC” value in the assay with human TSLP-His [12] was found to be 0.42 nM.

B6: chimeric antibody 90H3H11 (antibody, V domains shown)
VH: QVQLVESGGGVVQPGRSLRLSCAASGFTISNHDIHWVRQAPGKGLEWVTLIWYDGSNQYYADSVKGRFTISRDNSKNTVYLQMNSLRAEDTAVYYCARDDYADYVYFHHWGQGTLVTVSS
VL: DIQMTQSPSSLSASVGDRVTITCRASQNINSYLNWYRQKPGKAPELLIYAASSLQSGVPSRFSGSGSGTDFTLTISSLQPEDFATYYCQQSYSTPYTFGQGTELEIK
notes: as for B3
Regarding B6, in the assay with human TSLP-His [1], the IC50 amounted to 1.65 nM. The molecule also had a concentration for a half-maximal effect (EC50) with human TSLP-His [2] of 0.139 nM. In the assay with human TSLP-His [3], the “EC50 … (CCK8)” value turned out to be 0.25 nM. In addition, in the assay with human TSLP-His [4], the “hTSLP/hIL7Rα-hTSLPR-hFc inhibition rate (%)” value is 87%. For the same molecule, the “hTSLP binding (OD450)” value with human TSLP-His [5] amounted to 0.7 OD450.

B7: chimeric antibody 37C2D10 (antibody, V domains shown)
VH: QVQLQESGPGLVKPSGTLSLTCAVSGDSISSDNWWNWVRQPPGKGLQWIGEIFHSGRTNYNPSLKSRVTISVDMSKNQFSLKLSSVTAADTAVYFCARDAPNDYGDYGFFDYWGQGILVTVSS
VL: DIVMTQSPLSLPVTPGEPASISCRSSQSLLHSNEYNYLDWYLQKPGQSPQLLIYLGSDRASGVPDRFSGSGSGTDFTLKISRVEAEDVGIYYCMQALQTPYTFGQGTKLEIK
notes: as for B3
For B7, the IC50 with human TSLP-His [1] stood at 0.51 nM. For the same molecule, the “cTSLP binding (OD450)” value in assay [10] was found to be 1.12 OD450. Moreover, the concentration giving a half-maximal response (EC50) in the assay with human TSLP-His [2] was determined as 0.3 nM; in [11] it was 0.495 nM. For the same molecule, in the assay with human TSLP-His [3], the “EC50 … (CCK8)” value came out at 0.28 nM. Also, the “hTSLP/hIL7Rα-hTSLPR-hFc inhibition rate (%)” value with human TSLP-His [4] turned out to be 81%. For the same molecule, the “hTSLP binding (OD450)” value in the assay with human TSLP-His [5] was found to be 1.1 OD450.

B8: recombinant fully human antibody 37C2D10-hIgG (antibody, V domains shown)
VH: QVQLQESGPGLVKPSGTLSLTCAVSGDSISSDNWWNWVRQPPGKGLQWIGEIFHSGRTNYNPSLKSRVTISVDMSKNQFSLKLSSVTAADTAVYFCARDAPNDYGDYGFFDYWGQGILVTVSS
VL: DIVMTQSPLSLPVTPGEPASISCRSSQSLLHSNEYNYLDWYLQKPGQSPQLLIYLGSDRASGVPDRFSGSGSGTDFTLKISRVEAEDVGIYYCMQALQTPYTFGQGTKLEIKR
Turning to B8, the EC50 with human TSLP-His [6] turned out to be 0.9 nM; in assay [9] it was 0.17 nM. In addition, the Kd amounted to 1.76 nM in the assay with human TSLP-His [7] and 20.1 nM in assay [13]. Besides, in the assay with human TSLP-His [8], the “hTSLP EC50, inhibition” value came to 0.06 nM.

B9: chimeric antibody 43B1A8 (antibody, V domains shown)
VH: QMQLVESGGGAVQPGRSLRLSCAASGFTFRSYDMHWVRQAPGKGLEWVAVIWYDGSNENYADSVKGRFTTSRDNSKNTLFLQMNSLRAEDTAVYYCARSPLWYGEPDDAFDIWGQGTLVTVSS
VL: EIVMTQSPATLSVSPGERATLSCRASQSVSSNLAWYQQKPGQAPRLLISGASTRATGIPARFSGSGSGTDFTLTISSLRSEDFAVYYCQHYNNWPLTFGGGTKVEIK
notes: as for B3
As for B9, the IC50 with human TSLP-His [1] turned out to be 1.33 nM. For the same molecule, the “cTSLP binding (OD450)” value in [10] came to 1.11 OD450. Further, the values for the EC50 (with human TSLP-His [2]; in assay [11]) were 0.115 nM and 0.568 nM, respectively. Moreover, the “EC50 … (CCK8)” value with human TSLP-His [3] was 0.1 nM. For the same molecule, the “hTSLP/hIL7Rα-hTSLPR-hFc inhibition rate (%)” value with human TSLP-His [4] came to 80.7%. Moreover, in the assay with human TSLP-His [5], the “hTSLP binding (OD450)” value is 1.92 OD450.

What is called IC50 is the concentration that gives 50% inhibition. One may read the EC50 as the concentration that produces a half-maximal response. What is called Kd is the equilibrium constant for the complex coming apart.
